The values below come from patent US20250250357A1 (NANJING ZAIMING PHARMACEUTICAL, published 2025).

In test [1] the target is T1, human MSLN on OVCAR3 tumor cells (human, UniProt Q13421 296-598).
T1 construct: whole, on cells; also called human MSLN protein
Briefly: FACS, OVCAR3 cells.

The target of test [2] is T2, human MSLN-R3 on HEK293T-hMSLN-R3 recombinant cells (human, UniProt Q13421 487-606).
T2 construct: the C-terminal limit is uncertain; also called human MSLN-R3 membrane protein
Kind of test: FACS, HEK293T-hMSLN-R3 cells.

Test [3] addresses T3, monkey MSLN on HEK293T-monkey MSLN recombinant cells (monkey).
T3 construct: Full-length precursor as transfected; processing on the cell is not described; also called HEK293-monkey MSLN
T3 chain: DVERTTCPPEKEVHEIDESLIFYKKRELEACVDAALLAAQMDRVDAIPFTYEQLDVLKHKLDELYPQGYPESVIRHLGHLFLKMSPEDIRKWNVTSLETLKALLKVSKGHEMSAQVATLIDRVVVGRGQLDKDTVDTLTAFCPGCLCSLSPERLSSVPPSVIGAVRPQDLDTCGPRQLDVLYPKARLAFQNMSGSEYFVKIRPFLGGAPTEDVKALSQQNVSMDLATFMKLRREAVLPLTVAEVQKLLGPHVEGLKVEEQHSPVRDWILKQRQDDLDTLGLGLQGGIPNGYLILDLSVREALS
Kind of test: FACS, HEK293T-monkey MSLN cells.

The target of test [4] is T4, human MSLN-hFc recombinant protein (human, UniProt Q13421 296-580).
T4 construct: Captured by an anti-human IgG antibody on the chip; also called human MSLN protein; Acro MSN-H5253
Briefly: SPR (Biacore 8K), MSLN-hFc captured, antibody injected.

T1 sequence (Q13421 other isoform, or with tags, fused parts or gaps): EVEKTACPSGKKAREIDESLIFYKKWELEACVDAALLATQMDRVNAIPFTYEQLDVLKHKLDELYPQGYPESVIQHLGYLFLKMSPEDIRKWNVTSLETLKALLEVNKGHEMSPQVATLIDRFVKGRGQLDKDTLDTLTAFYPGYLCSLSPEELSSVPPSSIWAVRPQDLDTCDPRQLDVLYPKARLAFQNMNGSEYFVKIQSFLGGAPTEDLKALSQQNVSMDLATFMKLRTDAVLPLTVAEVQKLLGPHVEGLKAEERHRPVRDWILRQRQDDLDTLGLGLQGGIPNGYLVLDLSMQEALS
T4 sequence (Q13421 other isoform, or with tags, fused parts or gaps): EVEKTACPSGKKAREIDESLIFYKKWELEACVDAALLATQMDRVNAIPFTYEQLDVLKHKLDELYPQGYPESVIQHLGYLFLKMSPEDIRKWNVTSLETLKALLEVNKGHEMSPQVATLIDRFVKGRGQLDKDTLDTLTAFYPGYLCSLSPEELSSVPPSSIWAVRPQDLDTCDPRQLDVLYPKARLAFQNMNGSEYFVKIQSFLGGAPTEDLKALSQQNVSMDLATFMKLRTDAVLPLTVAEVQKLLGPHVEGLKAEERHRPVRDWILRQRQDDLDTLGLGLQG
T2 sequence (Q13421 495-614): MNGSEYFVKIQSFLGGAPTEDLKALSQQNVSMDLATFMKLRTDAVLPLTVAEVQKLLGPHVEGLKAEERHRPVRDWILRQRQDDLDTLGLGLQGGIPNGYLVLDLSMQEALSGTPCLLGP

B1: F2.39.3-H5 (scFv, not shown: small tags and cut ends)
scFv: EVQLVQSGAEVKKPGASVKVSCKASGYTFTNYWMHWVRQAPGQGLEWMGNINPSSGDSYYNERFMSRVTMTVDKSTSTAYMELSSLRSEDTAVYYCARSGGLWLAFWGQGTLVTVSSGGGGSGGGGSGGGGSDIVMTQSPDSLAVSLGERATINCKSSQTLLNSVSQNNYLAWYQQKPGQSPKLLIYFASTRESGVPDRFSGSGSGTDFTLTISSLQAEDVAVYYCQQHYRTPYTFGGGTKVEIK
notes: also called S009-F2.39.3 humanized antibody VH2 + VL1
In the case of B1, the EC50 was 6.37 nM in test [1], 4.65 nM in test [2] and 5.64 nM in test [3]. The values for the Maximum_MFI in test [1], in test [2] and in test [3] were 3140 MFI, 5650 MFI and 22500 MFI, respectively.

B2: F2.39.3-H2 (scFv, not shown: small tags and cut ends)
scFv: EVQLVQSGAEVKKPGASVKVSCKASGYTFTNYWMHWVRQAPGQGLEWMGNINPSSGDSYYNERFMSRVTMTVDKSTSTVYMELSSLRSEDTAVYYCARSGGLWLAFWGQGTLVTVSSGGGGSGGGGSGGGGSDIVMTQSPDSLAVSLGERATINCKSSQTLLNSVSQNNYLAWYQQKPGQSPTLLIYFASTRESGVPDRFSGSGSGTDFTLTISSLQAEDVAVYYCQQHYRTPYTFGGGTKVEIK
notes: also called S009-F2.39.3 humanized antibody VH1 + VL2
For the molecule B2, in test [1], it took 54 nM to reach a half-maximal effect (EC50) and the Maximum_MFI is 4220 MFI. Further, in test [2], the EC50 amounted to 6.33 nM and the Maximum_MFI amounted to 5970 MFI. Also, in test [4], the Kd was determined as 0.985 nM, the koff was determined as 3.39e-05 s⁻¹ and the kon was 34400 M⁻¹ s⁻¹. In test [3], the EC50 worked out at 8.74 nM and the Maximum_MFI is 24900 MFI.

B3: F2.39.3-H9 (scFv, not shown: small tags and cut ends)
scFv: EVQLVQSGAEVKKPGASVKVSCKASGYTFTNYWMHWVRQAPGQGLEWMGNINPSSGDSYYNERFMSRVTMTVDKSTSTAYMELSSLRSEDTAVYYCARSGGLWLAFWGPGTLVTVSSGGGGSGGGGSGGGGSDIVMTQSPDSLAVSLGERATINCKSSQTLLNSVSQNNYLAWYQQKPGQSPKLLIYFASTRESGVPDRFSGSGSGTDFTLTISSLQAEDVAVYYCQQHYRTPYTFGGGTKVEIK
notes: also called S009-F2.39.3 humanized antibody VH3 + VL1
Consider B3, for which, in test [1], the EC50 is 17.2 nM and the Maximum_MFI came to 4300 MFI. Besides, in test [2], the EC50 came to 5.66 nM and the Maximum_MFI was 5560 MFI. Moreover, in test [4], the Kd stood at 0.734 nM, the koff turned out to be 3.19e-05 s⁻¹ and the kon turned out to be 43500 M⁻¹ s⁻¹. Moreover, in test [3], the EC50 came to 7.73 nM and the Maximum_MFI was 23300 MFI.

B4: F2.39.3-H6 (scFv, not shown: small tags and cut ends)
scFv: EVQLVQSGAEVKKPGASVKVSCKASGYTFTNYWMHWVRQAPGQGLEWMGNINPSSGDSYYNERFMSRVTMTVDKSTSTAYMELSSLRSEDTAVYYCARSGGLWLAFWGQGTLVTVSSGGGGSGGGGSGGGGSDIVMTQSPDSLAVSLGERATINCKSSQTLLNSVSQNNYLAWYQQKPGQSPTLLIYFASTRESGVPDRFSGSGSGTDFTLTISSLQAEDVAVYYCQQHYRTPYTFGGGTKVEIK
notes: also called S009-F2.39.3 humanized antibody VH2 + VL2
As for B4, the EC50 in test [1] worked out at 40.3 nM; in test [2] it was 6.26 nM; in test [3], 8.9 nM. The Maximum_MFI in test [1] is 4160 MFI; in test [2], 5780 MFI; in test [3] it was 24100 MFI.

B5: F2.39.3-H1 (scFv, not shown: small tags and cut ends)
scFv: EVQLVQSGAEVKKPGASVKVSCKASGYTFTNYWMHWVRQAPGQGLEWMGNINPSSGDSYYNERFMSRVTMTVDKSTSTVYMELSSLRSEDTAVYYCARSGGLWLAFWGQGTLVTVSSGGGGSGGGGSGGGGSDIVMTQSPDSLAVSLGERATINCKSSQTLLNSVSQNNYLAWYQQKPGQSPKLLIYFASTRESGVPDRFSGSGSGTDFTLTISSLQAEDVAVYYCQQHYRTPYTFGGGTKVEIK
notes: also called S009-F2.39.3 humanized antibody VH1 + VL1
In the case of B5, the EC50 in test [1] came out at 11 nM; in test [2] it was 4.91 nM; in test [3], 5.31 nM. The Maximum_MFI turned out to be 4000 MFI in test [1], 5820 MFI in test [2] and 24400 MFI in test [3].

B6: F2.23.12-H5 (scFv, not shown: small tags and cut ends)
scFv: EVQLVQSGAEVKKPGASVKVSCKASGYTFTNYWMHWVRQAPGQGLEWMGNINPSNGGPYYNERFRSRVTMTVDKSTSTAYMELSSLRSEDTAVYYCARPYYGSSYGYFDYWGQGTTVTVSSGGGGSGGGGSGGGGSDIQMTQSPSSLSASVGDRVTITCKASQDINKYIAWYQQKPGKAPKLLIHYTSELQPGVPSRFSGSGSGTDFTFTISSLQPEDIATYYCLQYANPLRTFGGGTKVEIK
notes: also called S009-F2.23.12 humanized antibody VH2 + VL1
In test [1], B6 returned an EC50 of 11.3 nM and a Maximum_MFI of 3340 MFI. For the same molecule, in test [2], the EC50 came out at 4.16 nM and the Maximum_MFI was determined as 4730 MFI. Besides, in test [4], the Kd was 7.74 nM, the off-rate constant (koff) was found to be 0.000473 s⁻¹ and the kon amounted to 61200 M⁻¹ s⁻¹. In addition, in test [3], the EC50 was determined as 5.86 nM and the Maximum_MFI stood at 17700 MFI.

B7: F2.23.12-H16 (scFv, not shown: small tags and cut ends)
scFv: EVQLVQSGAEVKKPGASVKVSCKASGYTFTNYWMHWVRQAPGQGLEWMGNINPSQGGPYYNERFRSRVTMTVDKSTSTAYMELSSLRSEDTAVYYCARPYYGSSYGYFDYWGQGTTVTVSSGGGGSGGGGSGGGGSDIQMTQSPSSLSASVGDRVTITCKASQDINKYIAWYQHKPGKAPKLLIHYTSELQPGVPSRFSGSGSGRDYTFTISSLQPEDIATYYCLQYANPLRTFGGGTKVEIK
notes: also called S009-F2.23.12 humanized antibody VH4 + VL4
On to B7, for which the EC50 in test [1] turned out to be 80.4 nM; in test [2] it was 9.39 nM; in test [3] it was 12.3 nM. In addition, the Maximum_MFI in test [1] worked out at 2920 MFI; in test [2], 4010 MFI; in test [3] it was 16100 MFI.

B8: F2.23.12-H13 (scFv, not shown: small tags and cut ends)
scFv: EVQLVQSGAEVKKPGASVKVSCKASGYTFTNYWMHWVRQAPGQGLEWMGNINPSQGGPYYNERFRSRVTMTVDKSTSTAYMELSSLRSEDTAVYYCARPYYGSSYGYFDYWGQGTTVTVSSGGGGSGGGGSGGGGSDIQMTQSPSSLSASVGDRVTITCKASQDINKYIAWYQQKPGKAPKLLIHYTSELQPGVPSRFSGSGSGTDFTFTISSLQPEDIATYYCLQYANPLRTFGGGTKVEIK
notes: also called S009-F2.23.12 humanized antibody VH4 + VL1
In test [1], B8 had an EC50 of 38.6 nM and a Maximum_MFI of 3110 MFI. Also, in test [2], the concentration giving a half-maximal response (EC50) was determined as 8.3 nM and the Maximum_MFI was 4710 MFI. In test [4], the Kd was 31.1 nM, the koff was 0.000482 s⁻¹ and the association rate constant (kon) came to 15500 M⁻¹ s⁻¹. In addition, in test [3], the EC50 amounted to 10.9 nM and the Maximum_MFI came out at 17600 MFI.

B9: F2.23.12-H4 (scFv, not shown: small tags and cut ends)
scFv: EVQLVQSGAEVKKPGASVKVSCKASGYTFTNYWMHWVRQAPGQGLEWMGNINPSNGGPYYNERFRSRVTMTVDKSTSTVYMELSSLRSEDTAVYYCARPYYGSSYGYFDYWGQGTTVTVSSGGGGSGGGGSGGGGSDIQMTQSPSSLSASVGDRVTITCKASQDINKYIAWYQHKPGKAPKLLIHYTSELQPGVPSRFSGSGSGRDYTFTISSLQPEDIATYYCLQYANPLRTFGGGTKVEIK
notes: also called S009-F2.23.12 humanized antibody VH1 + VL4
Regarding B9, the EC50 in test [1] was determined as 9.9 nM; in test [2], 2.67 nM; in test [3], 2.5 nM. The values for the Maximum_MFI in test [1], in test [2] and in test [3] were 3630 MFI, 4760 MFI and 14500 MFI, respectively.

B10: F2.23.12-H8 (scFv, not shown: small tags and cut ends)
scFv: EVQLVQSGAEVKKPGASVKVSCKASGYTFTNYWMHWVRQAPGQGLEWMGNINPSNGGPYYNERFRSRVTMTVDKSTSTAYMELSSLRSEDTAVYYCARPYYGSSYGYFDYWGQGTTVTVSSGGGGSGGGGSGGGGSDIQMTQSPSSLSASVGDRVTITCKASQDINKYIAWYQHKPGKAPKLLIHYTSELQPGVPSRFSGSGSGRDYTFTISSLQPEDIATYYCLQYANPLRTFGGGTKVEIK
notes: also called S009-F2.23.12 humanized antibody VH2 + VL4
With B10, the EC50 was 14.5 nM in test [1], 5.57 nM in test [2] and 5.22 nM in test [3]. For the same molecule, the Maximum_MFI in test [1] stood at 3040 MFI; in test [2], 4590 MFI; in test [3] it was 14700 MFI.

B11: F2.23.12-H1 (scFv, not shown: small tags and cut ends)
scFv: EVQLVQSGAEVKKPGASVKVSCKASGYTFTNYWMHWVRQAPGQGLEWMGNINPSNGGPYYNERFRSRVTMTVDKSTSTVYMELSSLRSEDTAVYYCARPYYGSSYGYFDYWGQGTTVTVSSGGGGSGGGGSGGGGSDIQMTQSPSSLSASVGDRVTITCKASQDINKYIAWYQQKPGKAPKLLIHYTSELQPGVPSRFSGSGSGTDFTFTISSLQPEDIATYYCLQYANPLRTFGGGTKVEIK
notes: also called S009-F2.23.12 humanized antibody VH1 + VL1
Take B11: the 50% effective concentration (EC50) in test [1] was 9.56 nM; in test [2] it was 4.7 nM; in test [3], 6.72 nM. Besides, the Maximum_MFI in test [1] was 3250 MFI; in test [2], 4720 MFI; in test [3], 16000 MFI.

B12: F2.39.3-H8 (scFv, not shown: small tags and cut ends)
scFv: EVQLVQSGAEVKKPGASVKVSCKASGYTFTNYWMHWVRQAPGQGLEWMGNINPSSGDSYYNERFMSRVTMTVDKSTSTAYMELSSLRSEDTAVYYCARSGGLWLAFWGQGTLVTVSSGGGGSGGGGSGGGGSDIVMTQTPLSLSVTPGQPASISCKSSQTLLNSVSQNNYLAWYQQKPGQSPTLLVYFASTRESGVPDRFSGSGSGTDFTLKISRVEAEDVGVYYCQQHYRTPYTFGGGTKVEIK
notes: also called S009-F2.39.3 humanized antibody VH2 + VL4
Regarding B12, the EC50 turned out to be 18.6 nM in test [1], 6.91 nM in test [2] and 12.8 nM in test [3]. The Maximum_MFI in test [1] came out at 4120 MFI; in test [2], 5600 MFI; in test [3], 26000 MFI.
